From PMC6668441, “Comparative Study of Subcutaneous and Orthotopic Mouse Models of Prostate Cancer: Vascular Perfusion, Vasculature Density, Hypoxic Burden and BB2r-Targeting Efficacy” (Scientific Reports, 2019)

Tests used:
physchem = assay type: physicochemical; conditions: pH 7.4
Experimental: (§1) Peptide synthesis was performed using an automated solid-phase peptide synthesizer employing traditional Fmoc chemistry and using a Rink Amide resin. Briefly, the resin (100 µmol of the resin substituted peptide anchors) was deprotected using piperidine, resulting in the formation of a primary amine from which the C-terminus of the growing peptide was anchored.
The Fmoc protected amino acids (300 µmol) with appropriate orthogonal protection were activated with HBTU and sequentially added to the resin. The resulting peptide was orthogonally deprotected and cleaved from the resin using a cocktail consisting of triisopropyl silane (0.1 mL), water (0.1 mL), 3,6-dioxa-1,8-octanedithiol (0.1 mL), trifluoroacetic acid (4.625 mL) and thioanisole (0.075 mL), respectively. The cleaved peptide was subsequently precipitated and washed using cold (0 °C) methyl-tert-butyl ether (10 mL×3). The crude conjugate was dried by a centrivap concentrator and weighed. ES-MS was used to determine the molecular mass of the prepared peptides. All conjugate were peak purified to • 95% purity and quantified by RP-HPLC prior to in vitro/in vivo investigations.
HPLC Purification and Analysis Methodology […]
(§2) The partition coefficient was determined for the 177Lu-labeled conjugate. […] Aliquots of 100 µL were taken from each layer and the radioactivity of each was quantified by a Ȗ-counter. […]

[1] = Radiochemical stability in stabilizing buffers (RP-HPLC); assay type: physicochemical; conditions: PBS, 0.37 MBq in 1 mL, 4 °C, 72 h
Experimental: Briefly, 0.37 MBq of radiolabeled compounds were incubated with 1 mL of: A) PBS; B) ascorbic acid in 0.9% sodium chloride solution (40 mg/ml); and C) Selenomethionine (0.2 mg/ml) and ascorbic acid (40 mg/ml) in 0.9% sodium chloride solution at 4 °C for 24, 48 and 72 h. The stability of the radioconjugate at each time point was calculated based on the integration of the RP-HPLC chromatograms.
as §1
The Fmoc protected amino acids (300 µmol) with appropriate orthogonal protection were activated with HBTU and sequentially added to the resin. […] All conjugate were peak purified to • 95% purity and quantified by RP-HPLC prior to in vitro/in vivo investigations. […]
as §2

[2] = Biodistribution, BB2r-targeted uptake, subcutaneous PC-3 xenograft model; conditions: female, NOD SCID, mouse, iv, total radioactivity, 1 h 5 min p.i., mean ± SD; for dose excreted at 65 min: urine and faeces, excretion (urine and fecal material)

CSCC[C@H](NC(=O)[C@H](CC(C)C)NC(=O)[C@H](Cc1c[nH]cn1)NC(=O)CNC(=O)[C@@H](NC(=O)[C@H](C)NC(=O)[C@H](Cc1c[nH]c2ccccc12)NC(=O)[C@H](CCC(N)=O)NC(=O)CCOCCOCCOCCOCCNC(=O)[C@@H](CO)NC(=O)[C@@H](CO)NC(=O)[C@@H](CO)NC(=O)[C@@H](CO)NC(=O)[C@@H](CO)NC(=O)CN1CCN(CC(=O)O)CCN(CC(=O)O)CCN(CC(=O)O)CC1)C(C)C)C(N)=O [[^177Lu]Lu-DOTA-SP714, metal not drawn]
logD (physchem): -2.2 ± 0.1
radiolytic degradation [1]: 39.9%
tissue uptake at 65 min ([2]; blood, 10 uCi, blood uptake, tumor volume 300-700 mm^3, 10 µCi i.v.): 0.78 ± 0.81 %ID/g
tissue uptake at 65 min ([2]; blood, 10 uCi, blood uptake, tumor volume <300 mm^3, 10 µCi i.v.): 0.49 ± 0.4 %ID/g
tissue uptake at 65 min ([2]; blood, 10 uCi, blood uptake, tumor volume >700 mm^3, 10 µCi i.v.): 2.27 ± 0.6 %ID/g
tissue uptake at 65 min ([2]; bone, 10 uCi, bone uptake, tumor volume 300-700 mm^3, 10 µCi i.v.): 0.26 ± 0.19 %ID/g
tissue uptake at 65 min ([2]; bone, 10 uCi, bone uptake, tumor volume <300 mm^3, 10 µCi i.v.): 0.2 ± 0.12 %ID/g
tissue uptake at 65 min ([2]; bone, 10 uCi, bone uptake, tumor volume >700 mm^3, 10 µCi i.v.): 0.67 ± 0.07 %ID/g
tissue uptake at 65 min ([2]; brain, 10 uCi, brain uptake, tumor volume 300-700 mm^3, 10 µCi i.v.): 0.03 ± 0.01 %ID/g
tissue uptake at 65 min ([2]; brain, 10 uCi, brain uptake, tumor volume <300 mm^3, 10 µCi i.v.): 0.03 ± 0.02 %ID/g
tissue uptake at 65 min ([2]; brain, 10 uCi, brain uptake, tumor volume >700 mm^3, 10 µCi i.v.): 0.09 ± 0.05 %ID/g
tissue uptake at 65 min ([2]; heart, 10 uCi (370 kBq), heart uptake, tumor volume 300-700 mm^3, 10 µCi i.v.): 0.16 ± 0.03 %ID/g
tissue uptake at 65 min ([2]; heart, 10 uCi (370 kBq), heart uptake, tumor volume >700 mm^3, 10 µCi i.v.): 0.68 ± 0.48 %ID/g
tissue uptake at 65 min ([2]; heart, 10 uCi, heart uptake, tumor volume <300 mm^3, 10 µCi i.v.): 0.16 ± 0.05 %ID/g
tissue uptake at 65 min ([2]; kidney, 10 uCi, kidney uptake, tumor volume 300-700 mm^3, 10 µCi i.v.): 2.59 ± 1.02 %ID/g
tissue uptake at 65 min ([2]; kidney, 10 uCi, kidney uptake, tumor volume <300 mm^3, 10 µCi i.v.): 2.75 ± 1.29 %ID/g
tissue uptake at 65 min ([2]; kidney, 10 uCi, kidney uptake, tumor volume >700 mm^3, 10 µCi i.v.): 6.64 ± 2.83 %ID/g
tissue uptake at 65 min ([2]; large intestine, 10 uCi, large intestine uptake, tumor volume 300-700 mm^3, 10 µCi i.v.): 2.63 ± 2.12 %ID/g
tissue uptake at 65 min ([2]; large intestine, 10 uCi, large intestine uptake, tumor volume <300 mm^3, 10 µCi i.v.): 1.38 ± 0.75 %ID/g
tissue uptake at 65 min ([2]; large intestine, 10 uCi, large intestine uptake, tumor volume >700 mm^3, 10 µCi i.v.): 3.75 ± 2.89 %ID/g
tissue uptake at 65 min ([2]; liver, 10 uCi, liver uptake, tumor volume 300-700 mm^3, 10 µCi i.v.): 0.31 ± 0.06 %ID/g
tissue uptake at 65 min ([2]; liver, 10 uCi, liver uptake, tumor volume <300 mm^3, 10 µCi i.v.): 0.29 ± 0.12 %ID/g
tissue uptake at 65 min ([2]; liver, 10 uCi, liver uptake, tumor volume >700 mm^3, 10 µCi i.v.): 0.9 ± 0.49 %ID/g
tissue uptake at 65 min ([2]; lung, 10 uCi (370 kBq), lung uptake, tumor volume 300-700 mm^3, 10 µCi i.v.): 0.64 ± 0.39 %ID/g
tissue uptake at 65 min ([2]; lung, 10 uCi (370 kBq), lung uptake, tumor volume <300 mm^3, 10 µCi i.v.): 1.08 ± 1.55 %ID/g
tissue uptake at 65 min ([2]; lung, 10 uCi, lung uptake, tumor volume >700 mm^3, 10 µCi i.v.): 1.39 ± 0.67 %ID/g
tissue uptake at 65 min ([2]; muscle, 10 uCi, muscle uptake, tumor volume 300-700 mm^3, 10 µCi i.v.): 0.15 ± 0.07 %ID/g
tissue uptake at 65 min ([2]; muscle, 10 uCi, muscle uptake, tumor volume <300 mm^3, 10 µCi i.v.): 0.17 ± 0.12 %ID/g
tissue uptake at 65 min ([2]; muscle, 10 uCi, muscle uptake, tumor volume >700 mm^3, 10 µCi i.v.): 0.46 ± 0.24 %ID/g
tissue uptake at 65 min ([2]; pancreas, 10 uCi, pancreas uptake, tumor volume 300-700 mm^3, 10 µCi i.v.): 23.8 ± 8.43 %ID/g
tissue uptake at 65 min ([2]; pancreas, 10 uCi, pancreas uptake, tumor volume <300 mm^3, 10 µCi i.v.): 19.4 ± 13 %ID/g
tissue uptake at 65 min ([2]; pancreas, 10 uCi, pancreas uptake, tumor volume >700 mm^3, 10 µCi i.v.): 22.6 ± 7.83 %ID/g
tissue uptake at 65 min ([2]; small intestine, 10 uCi, small intestine uptake, tumor volume 300-700 mm^3, 10 µCi i.v.): 2.82 ± 1.14 %ID/g
tissue uptake at 65 min ([2]; small intestine, 10 uCi, small intestine uptake, tumor volume <300 mm^3, 10 µCi i.v.): 2.53 ± 1.39 %ID/g
tissue uptake at 65 min ([2]; small intestine, 10 uCi, small intestine uptake, tumor volume >700 mm^3, 10 µCi i.v.): 4.21 ± 1.92 %ID/g
tissue uptake at 65 min ([2]; spleen, 10 uCi, spleen uptake, tumor volume 300-700 mm^3, 10 µCi i.v.): 2.53 ± 1.31 %ID/g
tissue uptake at 65 min ([2]; spleen, 10 uCi, spleen uptake, tumor volume <300 mm^3, 10 µCi i.v.): 1.46 ± 1.32 %ID/g
tissue uptake at 65 min ([2]; spleen, 10 uCi, spleen uptake, tumor volume >700 mm^3, 10 µCi i.v.): 3.02 ± 0.63 %ID/g
tissue uptake at 65 min ([2]; stomach, 10 uCi, stomach uptake, tumor volume 300-700 mm^3, 10 µCi i.v.): 1.68 ± 0.85 %ID/g
tissue uptake at 65 min ([2]; stomach, 10 uCi, stomach uptake, tumor volume <300 mm^3, 10 µCi i.v.): 0.94 ± 0.53 %ID/g
tissue uptake at 65 min ([2]; stomach, 10 uCi, stomach uptake, tumor volume >700 mm^3, 10 µCi i.v.): 4.89 ± 3.52 %ID/g
tissue uptake at 65 min ([2]; tumor, 10 uCi, tumor uptake, tumor volume 300-700 mm^3, 10 µCi i.v.): 5.35 ± 1.75 %ID/g
tissue uptake at 65 min ([2]; tumor, 10 uCi, tumor uptake, tumor volume <300 mm^3, 10 µCi i.v.): 4.16 ± 1.74 %ID/g
tissue uptake at 65 min ([2]; tumor, 10 uCi, tumor uptake, tumor volume >700 mm^3, 10 µCi i.v.): 9.44 ± 3.66 %ID/g
dose excreted at 65 min ([2]; 10 uCi, tumor volume 300-700 mm^3, 10 µCi i.v.): 73.2 ± 7%
dose excreted at 65 min ([2]; 10 uCi, tumor volume <300 mm^3, 10 µCi i.v.): 68.5 ± 23.4%
dose excreted at 65 min ([2]; 10 uCi, tumor volume >700 mm^3, 10 µCi i.v.): 59 ± 12.4%
